Results taken from article PMC4397020.

Molecular target: fibronectin (from human plasma) (human) (UniProt P02751)
Assay: ELISA; as the adhesion assay on coated substrate, over a range of protein concentrations; KD estimated with the xy analysis subprogram of GraphPad Prism v. 5

Sequence of UniProt P02751 (P02751 other isoform, or with tags, fused parts or gaps, chain 1 of 2): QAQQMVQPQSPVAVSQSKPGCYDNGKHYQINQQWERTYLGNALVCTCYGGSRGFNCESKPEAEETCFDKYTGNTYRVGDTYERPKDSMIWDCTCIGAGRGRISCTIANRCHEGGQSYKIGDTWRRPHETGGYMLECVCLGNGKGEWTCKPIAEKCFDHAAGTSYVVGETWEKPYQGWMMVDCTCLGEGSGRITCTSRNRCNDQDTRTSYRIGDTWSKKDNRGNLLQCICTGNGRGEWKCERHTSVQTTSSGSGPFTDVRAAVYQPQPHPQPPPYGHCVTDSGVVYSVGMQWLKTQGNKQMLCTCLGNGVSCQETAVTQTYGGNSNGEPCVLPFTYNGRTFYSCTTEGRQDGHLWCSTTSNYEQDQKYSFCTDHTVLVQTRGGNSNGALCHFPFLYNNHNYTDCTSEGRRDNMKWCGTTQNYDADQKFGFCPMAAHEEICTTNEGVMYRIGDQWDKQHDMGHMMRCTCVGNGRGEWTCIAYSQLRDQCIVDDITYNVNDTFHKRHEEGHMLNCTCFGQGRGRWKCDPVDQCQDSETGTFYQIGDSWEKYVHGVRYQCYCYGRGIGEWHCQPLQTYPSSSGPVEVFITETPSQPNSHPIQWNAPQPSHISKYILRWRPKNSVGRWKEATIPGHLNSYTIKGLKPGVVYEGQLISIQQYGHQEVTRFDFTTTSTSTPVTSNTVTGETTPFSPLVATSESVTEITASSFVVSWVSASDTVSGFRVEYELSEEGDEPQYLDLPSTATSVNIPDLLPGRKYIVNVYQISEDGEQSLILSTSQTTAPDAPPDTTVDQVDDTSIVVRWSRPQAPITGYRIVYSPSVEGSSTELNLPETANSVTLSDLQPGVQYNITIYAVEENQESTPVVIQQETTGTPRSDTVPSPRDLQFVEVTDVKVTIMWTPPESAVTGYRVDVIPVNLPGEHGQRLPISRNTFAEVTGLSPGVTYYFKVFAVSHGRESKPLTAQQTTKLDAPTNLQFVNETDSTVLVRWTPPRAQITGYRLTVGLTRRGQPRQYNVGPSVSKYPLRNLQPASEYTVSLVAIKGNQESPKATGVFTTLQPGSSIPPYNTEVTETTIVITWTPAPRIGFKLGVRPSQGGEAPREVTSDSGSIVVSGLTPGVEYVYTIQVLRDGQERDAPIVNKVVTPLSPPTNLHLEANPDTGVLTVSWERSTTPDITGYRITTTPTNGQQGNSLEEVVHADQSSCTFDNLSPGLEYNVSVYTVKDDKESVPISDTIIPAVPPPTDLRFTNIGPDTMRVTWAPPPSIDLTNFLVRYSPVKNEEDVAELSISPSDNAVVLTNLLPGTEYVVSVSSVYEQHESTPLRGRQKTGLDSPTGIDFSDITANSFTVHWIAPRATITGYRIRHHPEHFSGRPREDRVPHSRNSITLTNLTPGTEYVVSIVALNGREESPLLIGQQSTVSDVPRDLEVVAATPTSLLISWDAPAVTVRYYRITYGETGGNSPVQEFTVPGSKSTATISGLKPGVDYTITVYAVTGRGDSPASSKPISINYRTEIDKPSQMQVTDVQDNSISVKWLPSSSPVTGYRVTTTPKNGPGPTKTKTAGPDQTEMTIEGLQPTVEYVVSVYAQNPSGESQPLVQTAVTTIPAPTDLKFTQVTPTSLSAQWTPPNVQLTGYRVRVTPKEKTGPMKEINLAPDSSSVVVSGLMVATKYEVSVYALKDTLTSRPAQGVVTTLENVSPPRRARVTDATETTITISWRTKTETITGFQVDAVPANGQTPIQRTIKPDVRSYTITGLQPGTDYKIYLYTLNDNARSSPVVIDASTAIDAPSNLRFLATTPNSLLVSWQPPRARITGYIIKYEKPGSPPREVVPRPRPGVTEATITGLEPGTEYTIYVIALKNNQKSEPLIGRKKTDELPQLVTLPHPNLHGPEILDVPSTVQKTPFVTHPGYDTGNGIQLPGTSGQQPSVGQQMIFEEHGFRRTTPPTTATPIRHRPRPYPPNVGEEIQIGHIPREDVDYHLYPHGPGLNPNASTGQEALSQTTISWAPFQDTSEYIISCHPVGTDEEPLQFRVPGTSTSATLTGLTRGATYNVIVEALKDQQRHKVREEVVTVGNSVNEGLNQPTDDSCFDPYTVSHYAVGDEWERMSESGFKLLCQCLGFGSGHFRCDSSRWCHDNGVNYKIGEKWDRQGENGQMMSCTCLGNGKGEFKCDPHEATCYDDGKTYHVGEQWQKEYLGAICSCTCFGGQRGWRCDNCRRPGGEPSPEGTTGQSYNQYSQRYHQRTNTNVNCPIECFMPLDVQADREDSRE
Sequence of UniProt P02751 (P02751 other isoform, or with tags, fused parts or gaps, chain 2 of 2): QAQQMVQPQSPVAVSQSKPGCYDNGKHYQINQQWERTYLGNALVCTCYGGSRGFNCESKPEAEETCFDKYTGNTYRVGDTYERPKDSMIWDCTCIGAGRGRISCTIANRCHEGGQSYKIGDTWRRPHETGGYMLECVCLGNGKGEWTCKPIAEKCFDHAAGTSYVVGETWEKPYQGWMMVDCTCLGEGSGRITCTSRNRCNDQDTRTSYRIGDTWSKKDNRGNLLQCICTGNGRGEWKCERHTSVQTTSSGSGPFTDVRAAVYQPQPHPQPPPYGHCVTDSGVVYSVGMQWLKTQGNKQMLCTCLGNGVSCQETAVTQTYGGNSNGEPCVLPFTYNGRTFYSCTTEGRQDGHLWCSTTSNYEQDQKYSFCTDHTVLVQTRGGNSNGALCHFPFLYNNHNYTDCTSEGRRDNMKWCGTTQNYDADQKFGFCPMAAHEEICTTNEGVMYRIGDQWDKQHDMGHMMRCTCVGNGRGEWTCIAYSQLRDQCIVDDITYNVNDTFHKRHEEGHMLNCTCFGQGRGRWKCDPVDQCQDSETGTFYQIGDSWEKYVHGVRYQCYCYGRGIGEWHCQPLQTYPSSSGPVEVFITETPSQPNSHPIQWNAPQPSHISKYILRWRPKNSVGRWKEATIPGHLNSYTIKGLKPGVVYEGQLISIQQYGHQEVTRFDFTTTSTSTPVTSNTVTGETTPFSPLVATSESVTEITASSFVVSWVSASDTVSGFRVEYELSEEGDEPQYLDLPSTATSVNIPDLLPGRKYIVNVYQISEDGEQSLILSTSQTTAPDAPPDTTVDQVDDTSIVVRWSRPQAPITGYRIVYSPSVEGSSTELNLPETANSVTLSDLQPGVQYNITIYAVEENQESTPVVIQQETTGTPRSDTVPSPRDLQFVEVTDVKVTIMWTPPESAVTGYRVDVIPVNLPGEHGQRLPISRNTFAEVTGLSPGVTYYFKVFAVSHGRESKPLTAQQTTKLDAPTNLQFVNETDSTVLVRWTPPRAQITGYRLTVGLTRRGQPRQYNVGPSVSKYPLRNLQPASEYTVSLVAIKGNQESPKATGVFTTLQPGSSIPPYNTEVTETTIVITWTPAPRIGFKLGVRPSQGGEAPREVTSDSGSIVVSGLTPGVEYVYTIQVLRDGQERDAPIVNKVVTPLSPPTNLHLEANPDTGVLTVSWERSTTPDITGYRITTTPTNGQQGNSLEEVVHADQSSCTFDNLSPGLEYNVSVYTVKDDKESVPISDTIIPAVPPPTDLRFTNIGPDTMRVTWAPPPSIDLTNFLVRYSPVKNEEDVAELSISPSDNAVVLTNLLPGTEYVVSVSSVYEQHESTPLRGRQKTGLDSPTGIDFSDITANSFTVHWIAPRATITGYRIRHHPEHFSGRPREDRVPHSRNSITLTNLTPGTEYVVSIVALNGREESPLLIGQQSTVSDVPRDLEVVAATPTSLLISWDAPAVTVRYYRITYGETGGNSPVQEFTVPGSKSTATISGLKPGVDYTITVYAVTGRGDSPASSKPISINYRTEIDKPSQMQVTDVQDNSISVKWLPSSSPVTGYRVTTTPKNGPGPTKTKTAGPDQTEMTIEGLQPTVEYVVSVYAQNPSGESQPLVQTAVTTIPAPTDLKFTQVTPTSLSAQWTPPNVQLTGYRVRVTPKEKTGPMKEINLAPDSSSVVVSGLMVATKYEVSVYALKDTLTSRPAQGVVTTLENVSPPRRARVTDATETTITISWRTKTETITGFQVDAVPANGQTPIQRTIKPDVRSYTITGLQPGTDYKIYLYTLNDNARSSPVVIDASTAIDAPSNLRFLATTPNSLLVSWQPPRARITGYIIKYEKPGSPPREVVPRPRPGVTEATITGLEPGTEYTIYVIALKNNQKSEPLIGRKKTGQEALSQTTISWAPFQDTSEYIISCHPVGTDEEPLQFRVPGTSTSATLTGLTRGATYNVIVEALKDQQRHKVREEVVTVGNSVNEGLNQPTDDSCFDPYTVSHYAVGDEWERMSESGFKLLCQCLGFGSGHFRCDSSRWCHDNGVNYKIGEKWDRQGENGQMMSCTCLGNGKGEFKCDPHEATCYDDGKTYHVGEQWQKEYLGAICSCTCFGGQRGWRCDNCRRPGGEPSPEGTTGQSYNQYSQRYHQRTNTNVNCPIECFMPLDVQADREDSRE

MBP-OmpL1 (natural protein) was tested, and the Kd was 870 nM.
